The target in assay [1] is T1, PTPN4-PDZ (residues G499-N604) (human), P29074.
T1 chain: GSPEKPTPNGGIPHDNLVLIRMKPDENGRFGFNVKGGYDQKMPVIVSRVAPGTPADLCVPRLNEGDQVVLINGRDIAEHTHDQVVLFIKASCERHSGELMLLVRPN
The assay is described as follows: NMR titration.

The target in assay [2] is T1, PTPN4-PDZ (residues G499-N604) (human), …. As to the kind of experiment: NMR titration, 15N-labeled PTPN4-PDZ with unlabeled peptide.

By Kd is commonly meant the free concentration of one partner at which half of the binding sites on the other are occupied at equilibrium, for simple one-to-one binding. A lower Kd goes with tighter binding. With SNRRVYKKMPSIESDV (modifications not checked) [GluN2A-16], the fold increase in affinity against Cyto13-att in assay [1] is 4 fold. For the same molecule, the Kd in assay [2] came out at 42 µM.
For the molecule LNLGNDPDRGTSI (modifications not checked) [GluD2-13], the Kd in assay [2] turned out to be 128 µM.
As to SWESYRSGGEIRL (modifications not checked) [EIRL-13], the Kd in assay [2] was determined as 1170 µM.

These data come from patent publication US20140302123A1.
